Experimental findings from patent US20220411531A1 (SUMGEN MAB BEIJING BIOTECH, published 2022) are described below.

Assay [1] has as its target T1, MER-His (ACRO Biosystems) (UniProt Q12866 21-499, limits assumed).
T1 construct: Bought reagent; not shown: His tag
T1 sequence (looked up): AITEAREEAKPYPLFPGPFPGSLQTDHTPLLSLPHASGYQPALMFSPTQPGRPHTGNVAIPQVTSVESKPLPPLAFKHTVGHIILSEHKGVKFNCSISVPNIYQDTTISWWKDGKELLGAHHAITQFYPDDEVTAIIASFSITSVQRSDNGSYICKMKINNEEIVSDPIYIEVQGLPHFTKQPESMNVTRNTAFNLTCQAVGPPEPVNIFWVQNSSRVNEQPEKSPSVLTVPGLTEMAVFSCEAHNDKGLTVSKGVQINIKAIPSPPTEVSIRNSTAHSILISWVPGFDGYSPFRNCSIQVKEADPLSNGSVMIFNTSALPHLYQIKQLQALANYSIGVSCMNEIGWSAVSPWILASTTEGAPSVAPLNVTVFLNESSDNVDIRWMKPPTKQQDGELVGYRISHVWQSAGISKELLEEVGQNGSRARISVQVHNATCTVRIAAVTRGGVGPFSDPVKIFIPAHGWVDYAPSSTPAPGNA
Briefly: ELISA, MER-His coated at 1 µg/ml, anti-human IgG Fab-HRP, OD450. The procedure:
(§1) AXL, TRYO3, and MER are all members of the TYRO3 receptor tyrosine kinase subfamily. To verify the recognition specificity of the antibodies 6G12M11, 6G12M21, 6G12M31 and 6G12M41, the binding ability of these antibodies to other members of the AXL family is tested by the ELISA method.
(§2) TYRO3-Fc (ACRO Biosystems), MER-His (ACRO Biosystems), and AXL-His (Sino Biological Inc.) each were coated at 1 μg/ml on an ELISA strip, which was held at 4° C. overnight. After the ELISA strips were washed with PBST, 10% fetal bovine serum was added to the ELISA strip, which was blocked for 1 hour at 37° C. Antibodies […], 6G12M21, 6G12M31 and 6G12M41 were added to react at 37° C. for 1 hour. After the ELISA strips were washed with PBST, horseradish peroxidase-labeled goat anti-human IgG Fab secondary antibodies (Goat Anti-Human IgG (Fab′)₂ (HRP), Abcam) were added to react for 30 minutes at 37° C. The ELISA strips were washed 5 times with PBST, and patted and dried on absorbent paper to remove residual droplets as much as possible. 100 μl of TMB (eBioscience, #85-00-420) was added to each well, and the ELISA strips were held for 1.5 min at room temperature (20±5° C.) in the dark. 100 μl of 2N H₂SO₄ stop solution was added to each well to terminate substrate reaction. The OD value was read at 450 nm by a microplate reader to analyze the binding ability of antibodies to the proteins.

In assay [2] the target is T2, TYRO3-Fc (ACRO Biosystems) (UniProt Q06418 41-428, limits assumed).
T2 construct: Bought reagent; also called TRYO3; not shown: Fc part
T2 sequence (looked up): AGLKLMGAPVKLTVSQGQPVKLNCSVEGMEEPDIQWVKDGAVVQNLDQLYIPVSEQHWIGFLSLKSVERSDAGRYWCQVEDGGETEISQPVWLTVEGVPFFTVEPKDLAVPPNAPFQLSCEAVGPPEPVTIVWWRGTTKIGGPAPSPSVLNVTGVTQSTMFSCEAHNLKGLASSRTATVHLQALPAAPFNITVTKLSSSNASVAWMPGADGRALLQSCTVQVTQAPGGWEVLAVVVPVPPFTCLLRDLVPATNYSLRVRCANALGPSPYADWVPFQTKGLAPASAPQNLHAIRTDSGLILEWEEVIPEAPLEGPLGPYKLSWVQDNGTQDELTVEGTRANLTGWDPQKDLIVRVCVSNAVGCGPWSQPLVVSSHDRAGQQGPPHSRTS
The assay is described as follows: ELISA, TYRO3-Fc coated at 1 µg/ml, anti-human IgG Fab-HRP, OD450. As to the method:
as §1, §2

The target of assay [3] is T3, AXL-His (Sino Biological Inc., 6x His labels, molecular weight 47.5 Kda) (UniProt P30530-2 26-440, limits assumed).
T3 construct: Bought reagent; also called target antigen AXL-His; target antigen AXL; not shown: 6x His tag
T3 sequence (looked up): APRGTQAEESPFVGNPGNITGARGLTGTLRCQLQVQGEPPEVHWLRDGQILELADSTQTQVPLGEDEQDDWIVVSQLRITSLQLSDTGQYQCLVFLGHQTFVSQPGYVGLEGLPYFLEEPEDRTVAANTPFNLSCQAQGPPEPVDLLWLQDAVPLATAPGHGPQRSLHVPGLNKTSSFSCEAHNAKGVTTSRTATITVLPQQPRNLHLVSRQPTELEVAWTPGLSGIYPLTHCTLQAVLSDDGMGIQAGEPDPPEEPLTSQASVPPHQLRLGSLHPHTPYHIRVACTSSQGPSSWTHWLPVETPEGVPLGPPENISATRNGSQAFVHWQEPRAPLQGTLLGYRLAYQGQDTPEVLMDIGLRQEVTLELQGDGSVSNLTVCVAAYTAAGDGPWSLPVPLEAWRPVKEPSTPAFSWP
Briefly: ELISA, AXL-His coated at 1 µg/ml, anti-human IgG Fab-HRP, OD450. The procedure:
as §2

B1: antibody 6G12M31 (antibody, V domains shown)
VH: QVQLVQSGPGLVKPSQSLSLTCSVTGFSISSGYYWNWIRQFPGQKLEWMGYRSYDGSNNYDPSLKNRISITRDTSKNQFFLKLNSVTSEDTATYYCARGWLLHYTMDYWGQGTTVTVSS
VL: DIVMTQSPSSVSVTLGQSASISCRSSRSLLHSNGFTYLYWYLQKPGQSPQLLIYQMSNLASGVPDRFSGSGSGTDFTLKISRVEAEDVGVYYCGQNLELPLTFGGGTKLEIK
In the case of B1, the binding result in assay [1] and in assay [2] was “no binding (tested: about 1 µg/mL)” each time. For the same molecule, in assay [3], the “EC50 (read off the curve)” value is ~0.03 µg/mL.

B2: antibody 6G12M11 (antibody, human IgG1, kappa, V domains shown)
VH: QVQLVQSGPGLVKPSQSLSLTCAVTGFSISSGYYWNWIRQFPGQKLEWMGYRSYDGSNNYNPSLKNRISITRDTSKNQFFLKLNSVTSEDTATYYCARGWLLHYTMDYWGQGTTVTVSS
VL: EIVMTQSPSSVSVTLGQSASISCRSSRSLLHSNGFTYLYWYLQKPGQSPQLLIYQMSNLASGVPDRFSGSGSGTDFTLKISRVEAEDVGVYYCGQNLELPLTFGGGTKLEIKR
For B2, the binding result in assay [1] is “no binding (tested: about 1 µg/mL)”. For the same molecule, the “EC50 (read off the curve)” value in assay [3] is ~0.03 µg/mL.

B3: antibody 6G12M41 (antibody, V domains shown)
VH: QVQLVQSGPGLVKPSQSLSLTCSVTGFSISSGYYWNWIRQFPGQKLEWMGYRSYDGSNNYGPSLKNRISITRDTSKNQFFLKLNSVTSEDTATYYCARGWLLHYTMDYWGQGTTVTVSS
VL: DIVMTQSPSSVSVTLGQSASISCRSSRSLLHSNGFTYLYWYLQKPGQSPQLLIYQMSNLASGVPDRFSGSGSGTDFTLKISRVEAEDVGVYYCGQNLELPLTFGGGTKLEIK
For B3, the binding result in assay [1] and in assay [2] was “no binding (tested: about 1 µg/mL)” each time. Besides, in assay [3], the “EC50 (read off the curve)” value was ~0.03 µg/mL.

B4: antibody 6G12M21 (antibody, human IgG1, kappa, V domains shown)
VH: QVQLVQSGPGLVKPSQSLSLTCSVTGFSISSGYYWNWIRQFPGQKLEWMGYRSYDGSNNYNPSLKNRISITRDTSKNQFFLKLNSVTSEDTATYYCARGWLLHYTMDYWGQGTTVTVSS
VL: DIVMTQSPSSVSVTLGQSASISCRSSRSLLHSNGFTYLYWYLQKPGQSPQLLIYQMSNLASGVPDRFSGSGSGTDFTLKISRVEAEDVGVYYCGQNLELPLTFGGGTKLEIKR
On to B4, for which the binding result in assay [1] and in assay [2] was “no binding (tested: about 1 µg/mL)” throughout. In addition, the “EC50 (read off the curve)” value in assay [3] was ~0.03 µg/mL.
